This is an account of results in article PMC9638930, “Structural basis of flagellar motility regulation by the MogR repressor and the GmaR antirepressor in Listeria monocytogenes” (Nucleic Acids Research, 2022).

The term EC50 denotes the midpoint of the concentration-response curve. As usually defined, the Kd is the free concentration of one partner at which half of the binding sites on the other are occupied at equilibrium, for simple one-to-one binding. Low readings indicate higher affinity, high ones lower affinity. By stoichiometry N is commonly meant a count of units in the complex or per binding partner.

The target of series [1] is His6-tagged GmaRFL protein. In words: ELISA.
The target of series [2] is MogRD with individual mutation of the N154, I155 and F156 residues to alanine. In words: ELISA; wells coated with MogR protein (20 nM); three-fold serially diluted His6-tagged GmaRFL, 2 h at 18°C; detected with anti-His6 antibody. In general terms: ELISA stands for enzyme-linked immunosorbent assay.
In series [3] the target is MogRD^S114A/Q117A/N118A/K122A (Listeria monocytogenes) (UniProt P0DJO8). The description is as above.
Series [4] has as its target T1, MogRD (MogR DNA-binding domain) (Listeria monocytogenes, UniProt P0DJO8 1-162).
T1 sequence: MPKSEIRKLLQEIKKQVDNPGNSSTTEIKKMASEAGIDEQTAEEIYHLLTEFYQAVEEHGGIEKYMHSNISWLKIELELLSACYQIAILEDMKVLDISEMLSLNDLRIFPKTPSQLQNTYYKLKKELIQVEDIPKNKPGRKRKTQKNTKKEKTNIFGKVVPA
Kind of series: FP; 20 mM Hepes pH 7.4, 150 mM NaCl, 5 mM bME; FP room temperature with 1 nM dsDNA; EMSA 18 C 30 min (GmaR inhibition assays at room temperature, 10 min, 2:1 MogR:dsDNA). The conditions noted are these: protein: recombinant; tags: N-terminal His6, thrombin site; blunt. On the technique in general: A gel shift assay detects complexes by their altered migration in electrophoresis.

Series [5] concerns the target T2, MogR1-151 (Listeria monocytogenes, UniProt P0DJO8 1-151).
T2 sequence: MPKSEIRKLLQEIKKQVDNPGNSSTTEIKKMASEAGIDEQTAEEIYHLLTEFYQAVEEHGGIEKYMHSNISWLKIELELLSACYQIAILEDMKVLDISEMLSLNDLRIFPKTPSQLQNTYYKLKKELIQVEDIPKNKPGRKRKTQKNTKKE
The description is as above. The conditions noted are these: protein: recombinant; tags: N-terminal His6, thrombin site; blunt.

Series [6] has as its target T3, MogRD Site1-Ala (Listeria monocytogenes, UniProt P0DJO8 1-162, K152A;T153A;N154A;I155A;F156A). Kind of series: FP; 100 nM MogR with GmaRFL; no inhibition; 20 mM Hepes pH 7.4, 150 mM NaCl, 5 mM bME; FP room temperature with 1 nM dsDNA; EMSA 18 C 30 min (GmaR inhibition assays at room temperature, 10 min, 2:1 MogR:dsDNA). The conditions noted are these: protein: recombinant; tags: N-terminal His6, thrombin site; chain copies: 2; blunt.

The target of series [7] is T4, MogR DBD protein (MogRD; residues 1–162) (Listeria monocytogenes, UniProt P0DJO8 1-162).
T4 construct: Monomer by gel filtration; also called MogR^GmaR; source: E. coli BL21 (DE3), purified (Ni-NTA, Mono S or Mono Q ion exchange); for the crystal co-purified with GmaR_(231-637)
T4 sequence: T1 sequence
Kind of series: ITC; MicroCal iTC200, 18°C; 250 μM MogRD injected into 25 μM GmaRFL or GmaR_(141-637); 20 mM Hepes pH 7.4, 150 mM NaCl, 5 mM βME; one-site binding model. The conditions noted are these: both partners purified. A general note: Isothermal titration calorimetry measures the heat released or taken up as one component is titrated into another.

Series [8] has as its target full-length GmaR (GmaRFL; residues 1–637) (Listeria monocytogenes). Kind of series: SEC; Superdex 200 10/300 at room temperature, 20 mM Hepes pH 7.4, 150 mM NaCl, 5 mM βME; GmaRFL, MogRD and their 1:1 molar mixture.
Series [9] shares this target. In words: ITC; MicroCal iTC200, 18°C; 250 μM MogRD injected into 25 μM GmaRFL or GmaR_(141-637); 20 mM Hepes pH 7.4, 150 mM NaCl, 5 mM βME; one-site binding model.
Series [10] has the same target. Kind of series: native gel or EMSA; native PAGE (6% gel, pH 8.8, Coomassie); GmaR incubated with MogR at a defined molar ratio at 18°C for 30 min in 20 mM Hepes pH 7.4, 150 mM NaCl, 5 mM βME.
In series [11] the target is T2, MogR1-151. Kind of series: EMSA; 20 mM Hepes pH 7.4, 150 mM NaCl, 5 mM bME; FP room temperature with 1 nM dsDNA; EMSA 18 C 30 min (GmaR inhibition assays at room temperature, 10 min, 2:1 MogR:dsDNA). The conditions noted are these: protein: recombinant; tags: N-terminal His6, thrombin site; label: none (ethidium bromide stain); blunt.
Series [12] addresses T3, MogRD Site1-Ala. The series is described as above. Particulars: protein: recombinant; tags: N-terminal His6, thrombin site; chain copies: 2; label: none (ethidium bromide stain); blunt.
Series [13] addresses T1, MogRD (MogR DNA-binding domain). In words: EMSA; with GmaRFL pretreated at 37 C 15 min; inhibition lost; 20 mM Hepes pH 7.4, 150 mM NaCl, 5 mM bME; FP room temperature with 1 nM dsDNA; EMSA 18 C 30 min (GmaR inhibition assays at room temperature, 10 min, 2:1 MogR:dsDNA). The conditions noted are these: protein: recombinant; tags: N-terminal His6, thrombin site; label: none (ethidium bromide stain); blunt.

A further series has as its target MogRD SiteMIG-Ala (Listeria monocytogenes, UniProt P0DJO8 1-162, R140A;K141A;R142A;K143A;T144A). In words: EMSA or FP (Supplementary Fig S9; method and label not given in material); 20 mM Hepes pH 7.4, 150 mM NaCl, 5 mM bME; FP room temperature with 1 nM dsDNA; EMSA 18 C 30 min (GmaR inhibition assays at room temperature, 10 min, 2:1 MogR:dsDNA). Particulars: protein: recombinant; tags: N-terminal His6, thrombin site; chain copies: 2; label: none (ethidium bromide stain); blunt.

As for “MogR DBD protein (MogRD; residues 1–162) (from UniProt P0DJO8) S114A”, in series [1] (parent: 167 ± 18), the EC50 was 139 nM.
In turn, “His6-tagged GmaRFL protein (natural protein)” registered a fold reduction of GmaRFL-binding activity against MogRD in series [2] of 5 to 6 fold. The molecule further showed a fold lower GmaRFL-binding activity than MogRD in [3] of 2 fold.
With “MogR DBD protein (MogRD; residues 1–162) (from UniProt P0DJO8) N154A”, the 50% effective concentration (EC50) in series [1] (parent: 220 ± 81) turned out to be 1230 nM.
“MogR DBD protein (MogRD; residues 1–162) (from UniProt P0DJO8) I155A”: in series [1] (parent: 220 ± 81), the concentration for a half-maximal effect (EC50) is 1170 nM.
As for “MogR DBD protein (MogRD; residues 1–162) (from UniProt P0DJO8) K122A”, the concentration giving a half-maximal response (EC50) in series [1] (parent: 167 ± 18) was 160 nM.
With “MogR DBD protein (MogRD; residues 1–162) (from UniProt P0DJO8) N118A”, the EC50 in series [1] (parent: 167 ± 18) worked out at 185 nM.
Take “MogR DBD protein (MogRD; residues 1–162) (from UniProt P0DJO8) T153A”: in [1] (parent: 220 ± 81), the half-maximal effective concentration (EC50) worked out at 518 nM.
In the case of “MogR DBD protein (MogRD; residues 1–162) (from UniProt P0DJO8) K152A”, the EC50 in series [1] (parent: 220 ± 81) came to 346 nM.
As for “MogR DBD protein (MogRD; residues 1–162) (from UniProt P0DJO8) S114A; Q117A; N118A; K122A”, in series [1] (parent: 167 ± 18), the EC50 came out at 342 nM.
With “MogR DBD protein (MogRD; residues 1–162) (from UniProt P0DJO8) T112A”, the EC50 in series [1] (parent: 167 ± 18) is 165 nM.
In the case of “MogR DBD protein (MogRD; residues 1–162) (from UniProt P0DJO8) F156A”, in series [1] (parent: 220 ± 81), the half-maximal effective concentration (EC50) stood at 1420 nM.
In the case of “MogR DBD protein (MogRD; residues 1–162) (from UniProt P0DJO8) Q117A”, the EC50 in series [1] (parent: 167 ± 18) turned out to be 182 nM.

B1: operator dsDNA, fluorescein-labeled (dsDNA)
DNA 1: ATTTGATTTTTTAAAAAAATGAAGA
DNA 2: TCTTCATTTTTTTAAAAAATCAAAT
Take B1: the binding result (in series [4]; with MogR1-151 [5]; in the series with MogRD Site1-Ala [6]) was “binds” in each case.

B2: N-terminally truncated GmaR protein (GmaR_(141-637); residues 141–637) (domain or fragment)
chain: RGVIHEQLEAIDKRPIAAGVAEVKIYHYGYMSEIVEKQDKSDRNLRLLEKEVKNNKNSGFVHFNIGQEMNRLGNKKEALKEFSEAFRLRDHNHYIWAKLSAYHIAELLEQEKRYDESLAIIEEARVIWPNVPEFPLKKANILYVNHQLEDAKEIYQSLLENAAIDYQPIVLYEATNFMPHKMLGTIYLEEKDYTRAMTHFSKAYAENSSDYGVMFQMIMLLSKFHQPKEIFAFMERHHFISSTETGLRLLSMTTQQGYAELSELIVQSLTDVYPPVAEATEVKIATIRNVFPVISESAILFGIKEELIDAADLCLWHYENPQLPIENVMKNSDVGDIYDFIFENGPRISKKRYLFVLERAIALGKGEFADYLLALRNVYHDSINSHIADLFFQYDFADIALDFYNIVDADEVTKQGYINLINYLVDADVLDEALAIAERGIDNFSTDFRFYLWAIKIDTENRANRISEAMDEFPNNRYLAKLLDEVTMLQDTVTNNR
In the case of B2, the Kd in [7] is about 22 nM.

B3: MogR DBD protein (MogRD; residues 1–162) (domain or fragment)
chain: T1 sequence
B3: the stoichiometry N in series [8] and in series [10] was 1 each time. Besides, in series [9], the Kd was 13 nM.

B4: operator dsDNA, unlabeled (dsDNA)
DNA 1: ATTTGATTTTTTAAAAAAATGAAGA
DNA 2: TCTTCATTTTTTTAAAAAATCAAAT
On to B4, for which the binding result in the series with MogR1-151 [11] was “binds”; with MogRD Site1-Ala [12], “binds”; in series [13], “binds”; with MogRD SiteMIG-Ala, “no binding”.
